Measured values reported in patent US20110091971A1, “Differentiation of Pluripotent Stem Cells” (priority 2008, published 2011).

System: H1 or H9 human embryonic stem cells
Assay: Activin A bioassay: differentiation of human embryonic stem cells to definitive endoderm, cell number and SOX17 intensity by high content analysis (96-well, four days);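 as to Cell Number average: Raw total cell count per well from high content imaging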;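 as to Sox 17 Intensity average: total fluorescence of the cell multiplied by cell area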
Type: cell-based
In short: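 Read-out was cell count and integrated SOX17 immunofluorescence by high-content imaging, with each well divided by the mean of the 100 ng/ml activin A control. Over the four-day culture, test samples were given in DMEM:F12 with 0.5% FCS plus 20 ng/ml Wnt3a for the first two days and in 2% FCS alone for the last two. Cells were H1 or H9 hESC clusters grown on Matrigel.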

[1] = supernatant concentration 1x, assay dilution 1:20
[2] = supernatant concentration 1x, assay dilution 1:20, control = R&D Sys Activin A 100 ng/ml on same plate
[3] = supernatant concentration 10x, assay dilution 1:20
[4] = supernatant concentration 10x, assay dilution 1:20, control = R&D Sys Activin A 100 ng/ml on same plate
[5] = supernatant concentration 10x, assay dilution 1:40
[6] = supernatant concentration 10x, assay dilution 1:40, control = R&D Sys Activin A 100 ng/ml on same plate
[7] = supernatant concentration 10x, assay dilution 1:20, assay plates #007, #009, #010
[8] = supernatant concentration 50x, assay dilution 1:20, assay plates #008, #009
[9] = supernatant concentration 50x, assay dilution 1:20, control = R&D Sys Activin A 100 ng/ml on same plate
[10] = concentrated supernatant (10x; ACTD3 4x), assay dilution 1:20

Row | Molecule | Cell Number average [1] | Sox 17 Intensity average [1] | Sox 17 Intensity % of control [2] [%] | Cell Number average [3] | Sox 17 Intensity average [3] | Sox 17 Intensity % of control [4] [%] | Cell Number average [5] | Sox 17 Intensity average [5] | Sox 17 Intensity % of control [6] [%] | Cell Number average [7] | Sox 17 Intensity average [7] | Cell Number average [8] | Sox 17 Intensity average [8] | Sox 17 Intensity % of control [9] [%] | Cell Number average [10] | Sox 17 Intensity average [10] | Sox 17 Intensity % of control (concentrated supernatant (10x; ACTD3 4x), assay dilution 1:20, control = R&D Sys Activin A 100 ng/ml) [%]
1 | ACTN89: activin A variant peptide, SEQ ID 90 (protein) GLECDGKVNICCKKQLFGQTKDIGWNDWIIAPSGYHGGGCSGECPSHIAGTSGSSLSFHSTVINHYRMRGHSPNANLKSCCSPTKLRPMSMLYYDDGQNIIKKDIQNMKVEECGCT | 5495 | 3.63E+05 | 1.6 | 5558 | 5.77E+05 | 2.5 | 4474 | 7.23E+05 | 3.2 |  |  |  |  |  |  |  | 
2 | ACTN58: activin A variant peptide, SEQ ID 59 (protein) GLECDGKVNICCKKQSFGQTKDIGWNDWIIAPSGYHGGGCTGECPSHIAGTSGSSLSFHSTVINHYRMRGHSPWANLKSCCSPTKLRPMSMLYYDDGQNIIKKDIQNMKVEECGCT |  |  |  |  |  | 3.0 |  |  |  | 11078 | 6.70E+05 | 13214 | 3.78E+06 | 6.8 |  |  | 
3 | ACTN90: activin A variant peptide, SEQ ID 91 (protein) GLECDGKVNICCKKQSFGQTKDIGWNDWIIAPSGYHGGSCSGECPSHIAGTSGSSLSFHSTVINHYRMRGHSPFANLKSCCSPTKLRPMSMLYYDDGQNIIKKDIQNMKVEECGCT | 1727 | 1.34E+06 | 5.9 | 2819 | 4.13E+05 | 1.8 | 3042 | 1.33E+06 | 5.8 |  |  |  |  |  |  |  | 
4 | ACTN24: activin A variant peptide, SEQ ID 25 (protein) GLECDGKVNLCCKKQDFVSFKDIGWNDWIIAPSGYHANRCSGRCPSHIAGTSGSSLSFHSTVINHYRMRGHSPFSDMGSCCVPTKLRPMSMLYYDDGQNIIKKDIQNMIVEECGCS |  |  |  |  |  | 13.2 |  |  |  | 3261 | 2.91E+06 | 4785 | 1.04E+07 | 18.8 |  |  | 
5 | ACTN29: activin A variant peptide, SEQ ID 30 (protein) GLECDGKVNLCCKKQLFVSFKDIGWNDWIIAPSGYHANHCSGKCPSHIAGTSGSSLSFHSTVINHYRMRGHSPFSDMGSCCIPTKLRPMSMLYYDDGQNIIKKDIQNMIVEECGCS |  |  |  |  |  | 232.0 |  |  |  | 8943 | 5.13E+07 | 8835 | 1.03E+08 | 186.2 |  |  | 
6 | ACTN26: activin A variant peptide, SEQ ID 27 (protein) GLECDGKVNLCCKKQHFVSFKDIGWNDWIIAPSGYHANRCDGKCPSHIAGTSGSSLSFHSTVINHYRMRGHSPFANMGACCIPTKLRPMSMLYYDDGQNIIKKDIQNMIVEECGCS |  |  |  |  |  | 2.7 |  |  |  | 4250 | 5.92E+05 | 5043 | 4.78E+06 | 8.6 |  |  | 
7 | ACTN34: activin A variant peptide, SEQ ID 35 (protein) GLECDGKVNYCCKKQLFVSFKDIGWNDWIIAPSGYHANHCTGKCPSHIAGTSGSSLSFHSTVINHYRMRGHSPFSDLGSCCVPTKLRPMSMLYYDDGQNIIKKDIQNMIVEECGCS |  |  |  |  |  | 257.4 |  |  |  | 10063 | 5.69E+07 | 12163 | 1.47E+08 | 266.9 | 11794 | 8.08E+07 | 185
8 | ACTN31: activin A variant peptide, SEQ ID 32 (protein) GLECDGKVNTCCKKQLFVSFKDIGWNDWIIAPSGYHANHCSGKCPSHIAGTSGSSLSFHSTVINHYRMRGHSPFSDMGSCCIPTKLRPMSMLYYDDGQNIIKKDIQNMIVEECGCS |  |  |  |  |  | 246.3 |  |  |  | 10450 | 5.44E+07 | 11148 | 1.49E+08 | 269.7 |  |  | 
9 | ACTN25: activin A variant peptide, SEQ ID 26 (protein) GLECDGKVNLCCKKQNFVSFKDIGWNDWIIAPSGYHANECSGLCPSHIAGTSGSSLSFHSTVINHYRMRGHSPFSQMGSCCIPTKLRPMSMLYYDDGQNIIKKDIQNMIVEECGCS |  |  |  |  |  | 16.1 |  |  |  | 5043 | 3.55E+06 | 4620 | 1.52E+07 | 27.6 |  |  | 
10 | ACTN37: activin A variant peptide, SEQ ID 38 (protein) GLECDGKVNLCCKKQDFVSFKDIGWNDWIIAPSGYHANRCSGKCPSHIAGTSGSSLSFHSTVINHYRMRGHSPFSDMGACCIPTKLRPMSMLYYDDGQNIIKKDIQNMIVEECGCS |  |  |  |  |  | 6.1 |  |  |  | 3957 | 1.35E+06 | 2902 | 5.89E+06 | 10.6 |  |  | 
11 | ACTN2: activin A variant peptide, SEQ ID 3 (protein) GLECDGKVNLCCKKQNFVSFKDIGWNDWIIAPSGYHANECTGKCPSHIAGTSGSSLSFHSTVINHYRMRGHSPFSDLGSCCIPTKLRPMSMLYYDDGQNIIKKDIQNMIVEECGCS | 4057 | 1.756E+07 | 9.5 | 2965 | 2.299E+07 | 12.5 | 2232 | 1.280E+07 | 7.0 |  |  |  |  |  |  |  | 
12 | ACTN33: activin A variant peptide, SEQ ID 34 (protein) GLECDGKVNLCCKKQNFVSFKDIGWNDWIIAPSGYHANECMGKCPSHIAGTSGSSLSFHSTVINHYRMRGHSPFSDMGACCIPTKLRPMSMLYYDDGQNIIKKDIQNMIVEECGCS |  |  |  |  |  | 9.7 |  |  |  | 3588 | 2.15E+06 | 3383 | 6.50E+06 | 11.8 |  |  | 
13 | ACTN30: activin A variant peptide, SEQ ID 31 (protein) GLECDGKVNYCCKKQNFVSFKDIGWNDWIIAPSGYHANKCSGLCPSHIAGTSGSSLSFHSTVINHYRMRGHSPFSKMGACCVPTKLRPMSMLYYDDGQNIIKKDIQNMIVEECGCS |  |  |  |  |  | 3.0 |  |  |  | 7357 | 6.73E+05 | 5013 | 2.87E+06 | 5.2 |  |  | 
